{"source": "IntAct's records for PubMed 40475291", "parents": {"B1": {"name": "Patched domain-containing protein 1 (Mus musculus), Q14B62 (parent)", "chain": "MLRQVLHRGLRTCFSRLGHFIASHPVFFASAPVLISILLGASFSRYQVEESVEHLLAPQHSLAKIERNLVNSLFPVNRSKHRLYSDLQTPGRYGRVIVTSYQKANMLDQHHTDLILKLHTAVTKIQVPRPGFNYTFAHICVLNNDKTCIVDDIVHVLEELKNARATNRTNFAITYPITHLKDGRAVYNGHQLGGVTVHSKDRVKSAEAIQLTYYLQSINSLNDMVAERWESSFCDTVKLFQKSNSKVKIYPYTSSSLREDFQKTSRVSERYLVTSLILVVTMAILCCSMQDCVRSKPWLGLLGLVTISLATLTAAGIINLTGGKYNSTFLGVPFVMLGHGLYGTFEMLSSWRKTREDQHVKERTAEVYADSMLSFSLTTAMYLVTFGIGASPFTNIEAARIFCCNSCIAILFNYLYVLSFYGSSLVFTGYIENNYQHSIFCRKVPKPDVLQEKPAWYRFLLTARFSEETAEGEEANTYESHLLVCFLKRYYCDWITNTYVKPFVVLFYLIYISFALMGYLQVSEGSDLSNIVATATQTIEYTTAHQKYFNNYSPVIGFYIYESIEYWNSSVQEDVLEYTKGFVRISWFESYLNYLRKLNVSTDLPKKNFTDMLRNSFLKTPQFSHFQEDIIFSKKYNDEVDVVASRMFLVAKTMETNREELYDLLETLRRLSVTSKVKFIVFNPSFVYMDRYASSLGAPLHNSCISALFLLFFSAFLVADSLINVWITLTVVSVEFGVIGFMTLWKVELDCISVLCLIYGINYTIDNCAPLLSTFVLGKDFTRTKWVKNALEVHGVAILQSYLCYIVGLFPLAAVPSNLTCTLFRCLFLIAFVTFFHCFAILPVILTFLPPSKKKRKEKKNPENREEIECVEMVDIDSTRVVDQITTV", "partner": "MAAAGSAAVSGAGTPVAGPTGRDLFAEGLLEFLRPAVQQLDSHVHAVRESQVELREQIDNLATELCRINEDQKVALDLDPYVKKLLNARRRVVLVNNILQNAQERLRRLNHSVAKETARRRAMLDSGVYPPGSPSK"}}, "data": [{"variants_of": "B1", "settings": "with snapn_mouse Snapin", "values": [{"variant": "T602A", "effect of a mutation on the interaction": "increasing interaction strength"}, {"variant": "P75Q", "effect of a mutation on the interaction": "decreasing interaction strength"}, {"variant": "P75L", "effect of a mutation on the interaction": "decreasing interaction strength"}, {"variant": "V150M", "effect of a mutation on the interaction": "with no effect"}, {"variant": "D527E", "effect of a mutation on the interaction": "increasing interaction strength"}, {"variant": "L73F", "effect of a mutation on the interaction": "with no effect"}, {"variant": "Q102R", "effect of a mutation on the interaction": "with no effect"}, {"variant": "K181T", "effect of a mutation on the interaction": "decreasing interaction strength"}, {"variant": "V195I", "effect of a mutation on the interaction": "decreasing interaction strength"}, {"variant": "Y213C", "effect of a mutation on the interaction": "decreasing interaction strength"}, {"variant": "F549C", "effect of a mutation on the interaction": "increasing interaction strength"}, {"variant": "S51N", "effect of a mutation on the interaction": "with no effect"}]}]}
